Data reported in article PMC13254535, “The RecBCD complex interacts directly with the DNA sliding clamp in Escherichia coli” (Nucleic Acids Research, 2026).
Where a chain is given by its changes, count along the chain named. Numbers in names are those of the source.

Columns and labels:
β-clamp = β-clamp (Escherichia coli, UniProt P0A988); experiment: Saturation transfer difference (STD)-NMR of peptides with β-clamp; format: binding; parameters: made in house; details: 150 µM peptide, 1.5 µM β-clamp; 25°C; 20 mM sodium phosphate, 100 mM NaCl, 5 mM DTT, 0.3% DMSO, 5% D2O, pH 7.4; 600 MHz
Chain of β-clamp (P0A988 whole entry): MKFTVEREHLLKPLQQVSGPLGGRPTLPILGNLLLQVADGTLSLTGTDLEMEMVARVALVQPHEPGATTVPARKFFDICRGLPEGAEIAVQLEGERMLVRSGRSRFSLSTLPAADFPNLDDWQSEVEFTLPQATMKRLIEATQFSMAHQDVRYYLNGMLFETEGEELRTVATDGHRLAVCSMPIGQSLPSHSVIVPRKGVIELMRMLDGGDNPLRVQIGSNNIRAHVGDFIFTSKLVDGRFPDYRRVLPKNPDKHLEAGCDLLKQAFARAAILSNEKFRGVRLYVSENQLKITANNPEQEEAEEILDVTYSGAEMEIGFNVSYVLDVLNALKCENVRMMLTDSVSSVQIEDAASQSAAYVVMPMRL
Experimental: All peptides, except Pol III C-terminal ([sequence]), were N-terminally acetylated and C-terminally amidated to remove charges in the N-and C-termini, not present in the context of the full-length proteins.
Unlabeled and ^2H, ^13C, ^15N-labeled E. coli β-clamp was expressed and purified as previously described [54]. The β-clamp concentration was determined by absorbance at 280 nm measured on a NanoDrop ND-1000 spectrophotometer (Thermo Fisher Scientific Inc.) and using an extinction coefficient calculated by the Expasy ProtParam web tool (https://web.expasy.org/protparam/) [55]. All β-clamp concentrations are listed as the protomer concentration. The peptides were readily soluble at micromolar concentration, although at high micromolar concentrations, we cannot rule out the presence of aggregates.
Saturation transfer difference (STD)-nuclear magnetic resonance (NMR) experiments were performed at 25°C on a Bruker Avance III HD 600 MHz NMR spectrometer equipped with a 5-mm QCI Cryoprobe. […] Samples were transferred to 5-mm NMR tubes.

[1] = molecular target: T1, Escherichia coli β-clamp (DnaN), recombinantly expressed and purified (Escherichia coli, UniProt P0A988 1-366); experiment: STD-NMR; 150 µM peptide with 1.5 µM unlabeled β-clamp, 20 mM sodium phosphate, 100 mM NaCl, 5 mM DTT, 0.3% DMSO, pH 7.4, 25°C; details: both partners purified
T1 construct: β-clamp (dnaN), E. coli; homodimer; Unlabeled in STD-NMR and ITC; 2H,13C,15N-labeled in the TROSY-HSQC experiments; also called DNA sliding clamp; source: recombinantly expressed and purified as previously described [54]
T1 sequence (P0A988 whole entry): as above

[2] = molecular target: T1, Escherichia coli β-clamp (DnaN), …; experiment: ITC; 278-294 µM β-clamp in the syringe titrated into 70.6 µM peptide in the cell; 20 mM sodium phosphate, 100 mM NaCl, 1 mM TCEP, 0.02% DMSO, pH 7.4, 25°C; one-site model; three replicates; details: both partners purified
ΔrecA ΔrecB cells [3] = experiment: DNA degradation assay after UV ("reckless" DNA degradation); format: cell-based, Escherichia coli; details: expressed from pUT18C in ΔrecA ΔrecB; UV 50 J/m^2, 3 h; Hoechst 33258 microscopy
Experimental: (§1) IMR13 (ΔrecA) served as a positive control for RecB-mediated DNA degradation, while IMR19 (ΔrecA ΔrecB) was used as a negative control.
(§2) Overnight cultures were diluted to an OD600 of 0.01 into LB medium supplemented with appropriate antibiotics and incubated with shaking at 37°C until they reached an OD600 of 0.2. Each culture was split into two 1 ml aliquots. One aliquot was fixed immediately in ethanol (50% final concentration) to assess DNA content prior to UV exposure. The second aliquot was pelleted, resuspended in 1× PBS, and exposed to UV light at a dose of 50 J/m^2 (CL-1000 Ultraviolet crosslinker, UVP). […]
(§3) Imaging was performed on a Leica DM6000 B fluorescence microscope equipped with a 100× oil immersion objective (Leica HCX Plan Apochromat 100×, 1.40 NA, PH3 CS), a Leica EL6000 metal-halide illumination system, and a Hamamatsu C9100-14 EM-CCD camera. For each sample, six fields of view were acquired, each including both phase-contrast and fluorescence channels. Fluorescence imaging was conducted using a narrow band-pass filter set optimized for CFP (Excitation: 426–446 nm; Emission: 460–500 nm; exposure time: 30 ms). All imaging parameters—including exposure time, illumination intensity, and gain—were kept constant across all strains, treatments, and replicates to ensure quantitative comparability and minimize experimental bias. […]

BTH101 ΔrecB cells = experiment: Western blot of RecB expression level; parameters: species or system Escherichia coli; details: pUT18C constructs in BTH101 ΔrecB; Ponceau S normalized; relative to BTH101 wild type
Experimental: Samples, including purified RecB, β-clamp (purified as previously explained for co-immunoprecipitation), input (10 µg; 0.5%), and pull-down eluates, and samples from BTH101 cultures used in survival assays, were mixed with 1 mM dithiothreitol (DTT) and 1× NuPAGE LDS sample buffer, then heated to 75°C for 10 min. […] SeeBlue Plus2 Pre-stained Protein Standard (Invitrogen) was used as a molecular weight marker.
Proteins were transferred onto 0.2-µm nitrocellulose membranes using the Trans-Blot Turbo Transfer System (Bio-Rad), and membranes were blocked in 5% (w/v) skim milk (Merck) in PBS-T (PBS with 0.1% Tween-20) for 45–60 min at room temperature. […] Following protein transfer, these membranes were also incubated in 0.1% (w/v) Ponceau S solution for 5 min to verify transfer efficiency and account for total protein loading. The stain was visualized, imaged for densitometric normalization, and subsequently removed by washing with deionized water prior to blocking. […]
Relative RecB levels were quantified from the western blot images using Fiji (ImageJ) [58]. […] The lane profiles were plotted, and the measured signal from each lane was first normalized to the relevant Ponceau stain signal from the same lane and then to the wild-type strain.

ΔrecA ΔrecB cells [4] = experiment: Basal DNA content without UV; format: cell-based, Escherichia coli; details: expressed from pUT18C in ΔrecA ΔrecB; no UV; compared to wild-type RecB
Experimental: as §1, §2, §3

recB strains = details: RecB mutation D1080A; ref [82]; cited from earlier work
RecA = details: RecB mutation D1080A; ref [82]; cited from earlier work

Q: For “KQVEMEAY [QVEMEF variant in which the terminal phenylalanine was replaced with alanine]”, which STD-NMR binding (β-clamp) is on record?
A: Its STD-NMR binding is “no detectable binding”.

Q: With “GQADMFG [DNA polymerase III internal CBM peptide, positive control, reference compound]” as the molecule, how does the STD-NMR binding (β-clamp) read?
A: Its STD-NMR binding is “clear binding”.

Q: Which STD-NMR binding (β-clamp) does the source give for “EQVELEFD [DNA polymerase III C-terminal CBM peptide, positive control, reference compound]” here?
A: The STD-NMR binding was “clear binding”.

Q: Which STD-NMR binding (β-clamp) does the source give for “GKNQALRFV [RecB helicase motif peptide (residues 485–489) with one C-terminal and three N-terminal flanking residues]” here?
A: The STD-NMR binding was “did not exhibit detectable STD signals under the conditions tested”.

Q: For “GKNQALRAV [phenylalanine-to-alanine variant of the RecB helicase motif peptide]”, which STD-NMR binding (β-clamp) is on record?
A: The STD-NMR binding was “did not exhibit detectable STD signals under the conditions tested”.

B1: Pol III C-terminal peptide (EQVELEFD) (peptide)
peptide: EQVELEFD
notes: free termini; also called QVELEF peptide; source: synthetic peptide; bought: TAG Copenhagen
Q: Does B1 bind [1]?
A: Result: binds

B2: Pol III internal peptide (GQADMFG) (peptide)
peptide: Ac-GQADMFG-NH2
notes: also called QADMF peptide; source: synthetic peptide; bought: TAG Copenhagen
Q: Does B2 bind [1]?
A: Result: binds

B3: RecB nuclease motif peptide (KQVEMEFY) (peptide)
peptide: Ac-KQVEMEFY-NH2
notes: also called QVEMEF peptide; RecB-derived QVEMEF peptide; source: synthetic peptide; bought: TAG Copenhagen
Q: With B3 as the molecule, how does the Kd [2] read?
A: Its Kd is 2000 nM.

B4: RecBF489A: RecB with an F489A substitution in the QALRF motif (protein, UniProt P08394 2-1180, looked up, variant F489A)
RecBCD enzyme subunit RecB: SDVAETLDPLRLPLQGERLIEASAGTGKTFTIAALYLRLLLGLGGSAAFPRPLTVEELLVVTFTEAATAELRGRIRSNIHELRIACLRETTDNPLYERLLEEIDDKAQAAQWLLLAERQMDEAAVFTIHGFCQRMLNLNAFESGMLFEQQLIEDESLLRYQACADFWRRHCYPLPREIAQVVFETWKGPQALLRDINRYLQGEAPVIKAPPPDDETLASRHAQIVARIDTVKQQWRDAVGELDALIESSGIDRRKFNRSNQAKWIDKISAWAEEETNSYQLPESLEKFSQRFLEDRTKAGGETPRHPLFEAIDQLLAEPLSIRDLVITRALAEIRETVAREKRRRGELGFDDMLSRLDSALRSESGEVLAAAIRTRFPVAMIDEFQDTDPQQYRIFRRIWHHQPETALLLIGDPKQAIYAFRGADIFTYMKARSEVHAHYTLDTNWRSAPGMVNSVNKLFSQTDDAFMFREIPFIPVKSAGKNQALRAVFKGETQPAMKMWLMEGESCGVGDYQSTMAQVCAAQIRDWLQAGQRGEALLMNGDDARPVRASDISVLVRSRQEAAQVRDALTLLEIPSVYLSNRDSVFETLEAQEMLWLLQAVMTPERENTLRSALATSMMGLNALDIETLNNDEHAWDVVVEEFDGYRQIWRKRGVMPMLRALMSARNIAENLLATAGGERRLTDILHISELLQEAGTQLESEHALVRWLSQHILEPDSNASSQQMRLESDKHLVQIVTIHKSKGLEYPLVWLPFITNFRVQEQAFYHDRHSFEAVLDLNAAPESVDLAEAERLAEDLRLLYVALTRSVWHCSLGVAPLVRRRGDKKGDTDVHQSALGRLLQKGEPQDAAGLRTCIEALCDDDIAWQTAQTGDNQPWQVNDVSTAELNAKTLQRLPGDNWRVTSYSGLQQRGHGIAQDLMPRLDVDAAGVASVVEEPTLTPHQFPRGASPGTFLHSLFEDLDFTQPVDPNWVREKLELGGFESQWEPVLTEWITAVLQAPLNETGVSLSQLSARNKQVEMEFYLPISEPLIASQLDTLIRQFDPLSAGCPPLEFMQVRGMLKGFIDLVFRHEGRYYLLDYKSNWLGEDSSAYTQQAMAAAMQAHRYDLQYQLYTLALHRYLRHRIADYDYEHHFGGVIYLFLRGVDKEHPQQGIYTTRPNAGLIALMDEMFAGMTLEEA
Q: With B4 as the molecule, how does the “reckless DNA degradation after UV” value (ΔrecA ΔrecB cells [3]) read?
A: The value was “did not”.

Q: And the “RecB expression level relative to endogenous RecB” value (BTH101 ΔrecB cells)?
A: The value was roughly 2 times.

Q: What about the “basal DNA content” value (ΔrecA ΔrecB cells [4]) of the same molecule?
A: Its value is “No significant difference in DNA content”.

B5: D1080A: RecB mutation that disrupts the interaction between RecB and RecA (protein, UniProt P08394 2-1180, looked up, variant D1080A)
RecBCD enzyme subunit RecB: B4 RecBCD enzyme subunit RecB with A488F, D1079A
Q: What does the source list for B5?
A: survival rates after UV exposure (recB strains): comparable to those observed in strains with a complete recB deletion; interaction between RecB and RecA (RecA): disrupts the interaction between RecB and RecA
